# Experimental data from paper PMC4425688.
# Substrate: Nc1ccn([C@@H]2O[C@H](COP(=O)(O)OP(=O)(O)OP(=O)(O)O)[C@@H](O)[C@H]2O)c(=O)n1
# Assay: purified protein
# Assay type: biochemical, Bacteroides thetaiotaomicron
# Settings: 6 mM KDN, 10 mM MgCl2, Tris pH 7.5, 25 °C
protein,measurement,value
BT1715 (Bacteroides thetaiotaomicron VPI-5482) (protein) MNYAFVVQARLGSTRLPGKILKPFYGNQSILDLMVHKLSAISNIPVIIATTNSVINEPIEKKALALGVKCFRGEENDVLKRFIDVAEYFDIQGIFRICSDNPFLDVHAARQLVEIAMKSCNDYISFDIDGTPSIKTHFGFWGEFVTLDALKRVIGFTDDLLYREHVTNYIYSHPELFNIQWISGSPVVSKHHNIRLTIDTLEDFSVAQRIYRDLQEKRVEISIEVIVDYVRRHAEYIQLMKQQIKKNSK,Km,510 ± 30 µM
same,kcat,0.017 ± 0.0005 s⁻¹
